For this experiment, the target named is P301S tauRD-mEOS3.2 (human). The experiment is described as follows: FRET or BRET. (Bioluminescence resonance energy transfer reports proximity on the nanometre scale.)

Regarding “P301S tauRD-mEOS3.2 (domain or fragment)”, the percent FRET-positive cells (100 nM recombinant tau fibrils) amounted to 74%.

The record behind these values is doi:10.1101/2023.12.13.571598.
